For the series, the system named is Bca DNA polymerase. As to conditions: unmodified dCTP; 39 units/µl with dCTPalphaS, 40-50 with dCTPalphaBH3; 4 mM Mg, 60 C.

Data on one substance can be found in patent US5702926.

As to activated calf thymus DNA, the activity turned out to be 152 units/µl.
